From publication PMC9126943, “ADAMTS4-specific MR probe to assess aortic aneurysms in vivo using synthetic peptide libraries” (Nature Communications, 2022)
“Also recorded” adds a separate entry of the source. Where a SMILES comes first, the peptide text is derived from it. Bridges are numbered along the chain shown (N, C = ends). The star is where a group is joined. Cy5(nonsulfonated) = CN1C(=CC=CC=CC2=[N+](CCCCCC(=O)*)c3ccccc3C2(C)C)C(C)(C)c2ccccc21; DOTA = O=C(O)CN1CCN(CC(=O)O)CCN(CC(=O)*)CCN(CC(=O)O)CC1

Assays:
[1] = Solubility (statement, no method); assay type: physicochemical; settings: statement in the discussion
[2] = molecular target: T1, ADAMTS1 (Homo sapiens, UniProt Q9UHI8); experiment: MST instrument, ligand-dependent fluorescence change, Cy5-labeled peptide vs ADAMTS1; assay type: binding; settings: Cy5-labeled peptide 3 nM, ADAMTS1 starting concentration 4.88 µM, n = 3
T1 construct: His; purchased BioTeZ Berlin-Buch GmbH 30 400 402
T1 sequence (Q9UHI8 253-967): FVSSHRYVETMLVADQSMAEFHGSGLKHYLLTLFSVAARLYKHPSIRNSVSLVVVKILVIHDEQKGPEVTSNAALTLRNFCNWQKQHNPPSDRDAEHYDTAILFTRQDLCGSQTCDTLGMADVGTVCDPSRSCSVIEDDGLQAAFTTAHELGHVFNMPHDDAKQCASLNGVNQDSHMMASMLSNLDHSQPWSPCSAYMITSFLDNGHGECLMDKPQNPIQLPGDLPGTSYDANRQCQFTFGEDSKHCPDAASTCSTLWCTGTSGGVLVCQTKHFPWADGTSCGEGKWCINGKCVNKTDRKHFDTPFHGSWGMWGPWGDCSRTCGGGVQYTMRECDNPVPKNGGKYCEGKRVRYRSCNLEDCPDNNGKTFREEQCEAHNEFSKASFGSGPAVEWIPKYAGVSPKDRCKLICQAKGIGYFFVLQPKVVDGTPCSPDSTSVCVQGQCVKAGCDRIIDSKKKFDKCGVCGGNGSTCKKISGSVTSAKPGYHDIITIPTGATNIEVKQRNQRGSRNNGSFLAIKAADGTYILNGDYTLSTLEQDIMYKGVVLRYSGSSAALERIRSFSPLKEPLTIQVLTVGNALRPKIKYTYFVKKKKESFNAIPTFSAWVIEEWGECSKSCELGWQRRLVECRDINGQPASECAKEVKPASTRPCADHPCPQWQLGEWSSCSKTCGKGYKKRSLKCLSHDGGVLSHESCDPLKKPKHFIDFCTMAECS
Protocol: Microscale thermophoresis (MST) was performed on a Monolith Pico (NanoTemper, Munich, Germany). The Cy5-labeled peptides were diluted into the MST buffer (150 mM NaCl, 50 mM TRIS-HCl, 5 mM CaCl2, and Tween-20) to reach a dilution of 6 nM. ADAMTS4, ADAMTS5, and ADAMTS1 were directly used with the supplied concentration. For ADAMTS4, the starting concentration was 4.96 µM, while for ADAMTS1 it was 4.88 µM and for ADAMTS5 it was 2.46 µM. Since we saw a loss of binding after centrifugation, the use of protein concentrators were inappropriate. 20 µl of the protein solutions were transferred into a PCR tube. 10 µl of this first vial was transferred into a second vial and mixed by pipetting with 10 µl of the MST buffer. […] The capillaries were transferred into the Monolith tray and measured with 10% excitation power on the pico-red excitation on high MST power at 25 °C. […] We detected a ligand-dependent fluorescence change for some of the systems. We checked for ADAMTS4 and the ADAMTS4-specific-Cy5-labeled probe via a saturation test for specifying the ligand-dependent fluorescence change. […] The samples were heated at 95 °C for 5 min and measured in the MST. The fluorescence difference between the concentrations was afterward at the same level. Each measurement was repeated three times independently and the binding constant was calculated by merging all three measurements. […]

SMILES	solubility [1]	binding to ADAMTS1, in words [2]
N=C(N)NCCC[C@@H]1NC(=O)[C@H](CCCNC(=N)N)NC(=O)[C@H](CO)NC(=O)[C@@H](N)CSSC[C@@H](C(=O)N[C@@H](CO)C(=O)NCC(=O)NCC(=O)N[C@@H](CO)C(=O)NCC(=O)NCC(=O)N[C@@H](CCCCNC(=O)CN2CCN(CC(=O)O)CCN(CC(=O)O)CCN(CC(=O)O)CC2)C(=O)NCC(N)=O)NC(=O)CNC1=O (Gd complex, metal not drawn) [ADAMTS4-specific probe] (H-CSRRGCSGGSGGK(DOTA)G-NH2; disulfide 1-6)	high solubility	–
C[N+]1=C(C=CC=CC=C2N(CCCCCC(=O)NCCCC[C@H](NC(=O)CNC(=O)CNC(=O)[C@H](CO)NC(=O)CNC(=O)CNC(=O)[C@H](CO)NC(=O)[C@@H]3CSSC[C@H](N)C(=O)N[C@@H](CO)C(=O)N[C@@H](CCCNC(=N)N)C(=O)N[C@@H](CCCNC(=N)N)C(=O)NCC(=O)N3)C(=O)NCC(N)=O)c3ccccc3C2(C)C)C(C)(C)c2ccccc21 [Cy5-labeled probe] (H-CSRRGCSGGSGGK(Cy5(nonsulfonated))G-NH2; disulfide 1-6; N-terminus and C-terminus assumed)	–	determination of the binding constant is not possible; also recorded: plateau was not reached; also recorded: a ligand dependent fluorescence change occurs
